In experiment [1] the target is EnvZc C277Y (S. Typhimurium) (UniProt P08982). As to the kind of experiment: SEC; gel filtration profiles of EnvZc, EnvZc C277Y, OmpR, (OmpR + EnvZc) and (OmpR + EnvZc C277Y); Superose 12 10/300 GL for EnvZc, AKTA FPLC, 0.5 ml/min, 'suitable buffers'; fractions analysed by SDS-PAGE. A general note: SEC sorts molecules by how far they enter the pores of the column.
A further experiment concerns the target OmpR (UniProt P0AA16). As to the kind of experiment: SEC; oligomeric state of OmpR alone under acidic conditions; Hiload 16/60 Superdex 75 pg for OmpR; OmpR buffer exchanged into 20 mM Tris, 200 mM NaCl.
For a further experiment, the target named is T1, EnvZc ( (S. Typhimurium or E. coli …, UniProt P08982 1-450)).
T1 construct: EnvZ sensor histidine kinase, cytoplasmic domain (EnvZc); also called wild-type EnvZc; cytoplasmic domain of EnvZ
T1 sequence: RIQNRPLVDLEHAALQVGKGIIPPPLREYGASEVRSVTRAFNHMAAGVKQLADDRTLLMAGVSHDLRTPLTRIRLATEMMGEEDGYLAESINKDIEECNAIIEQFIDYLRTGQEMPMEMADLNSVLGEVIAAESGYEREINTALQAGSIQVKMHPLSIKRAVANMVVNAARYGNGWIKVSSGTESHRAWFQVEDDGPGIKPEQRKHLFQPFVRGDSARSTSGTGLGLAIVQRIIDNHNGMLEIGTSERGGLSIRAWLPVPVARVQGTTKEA
As to the kind of experiment: SEC; gel filtration profiles of EnvZc, EnvZc C277Y, OmpR, (OmpR + EnvZc) and (OmpR + EnvZc C277Y); Superose 12 10/300 GL for EnvZc, AKTA FPLC, 0.5 ml/min, 'suitable buffers'; fractions analysed by SDS-PAGE. Particulars: both partners purified.

The term stoichiometry N denotes a count of units in the complex or per binding partner. As to “EnvZc C277Y (from UniProt P08982 1-450) (domain or fragment)”, the stoichiometry N in experiment [1] came to 2.

As to “OmpR (from UniProt P0AA16 1-239) (natural protein)”, in the experiment with OmpR, the stoichiometry N stood at 2.

B1: OmpR (natural protein)
chain: MQENYKILVVDDDMRLRALLERYLTEQGFQVRSVANAEQMDRLLTRESFHLMVLDLMLPGEDGLSICRRLRSQSNPMPIIMVTAKGEEVDRIVGLEIGADDYIPKPFNPRELLARIRAVLRRQANELPGAPSQEEAVIAFGKFKLNLGTREMFREDEPMPLTSGEFAVLKALVSHPREPLSRDKLMNLARGREYSAMERSIDVQISRLRRMVEEDPAHPRYIQTVWGLGYVFVPDGSKA
notes: OmpR, response regulator of the EnvZ-OmpR two-component system; The unphosphorylated protein was used in gel filtration; also called His-OmpR; source: E. coli BL21 (DE3), from pET15b, purified
With B1, in the experiment with EnvZc, the “stoichiometry N” value is 2 OmpR molecules per EnvZc dimer.

The values above are taken from article PMC5686162, “Non-canonical activation of OmpR drives acid and osmotic stress responses in single bacterial cells” (Nature Communications, 2017).
